Positions count from the first letter of the chain named.
B1: iPS:454783 (bispecific antibody, human IgG1, kappa, lambda, N297G)
light 1: QSVLTQPPSVSAAPGQKVTISCSGSYSNIGRYSVSWYQQLPGTAPKLLIYDNNKRPSGIPDRFSGSKSGTSATLGITGLQTGDEADYYCGTWDSRLSAVVFGGGTKLTVLGQPKAAPSVTLFPPSSEELQANKATLVCLISDFYPGAVTVAWKADSSPVKAGVETTTPSKQSNNKYAAKSYLSLTPEQWKSHRSYSCQVTHEGSTVEKTVAPTECS
heavy 1: QVQLVESGGGVVQPGRSLRLSCAASGFTFSSFGMHWVRQAPGKGLEWVAVISFDGSIKYSVDSVKGRFTISRDNSKNTLFLQMNSLRAEDTAVYYCARDRLNYYESSGYYHYKYYGMAVWGQGTTVTVSSASTKGPSVFPLAPSSKSTSGGTAALGCLVKDYFPEPVTVSWNSGALTSGVHTFPAVLQSSGLYSLESVVTVPSSSLGTQTYICNVNHKPSNTKVDKKVEPKSCDKTHTCPPCPAPELLGGPSVFLFPPKPKDTLMISRTPEVTCVVVDVSHEDPEVKFNWYVDGVEVHNAKTKPCEEQYGSTYRCVSVLTVLHQDWLNGKEYKCKVSNKALPAPIEKTISKAKGQPREPQVYTLPPSRKKMTKNQVSLTCLVKGFYPSDIAVEWESNGQPENNYKTTPPVLKSDGSFFLYSKLTVDKSRWQQGNVFSCSVMHEALHNHYTQKSLSLSPGK
light 2: EIVLTQSPATLSLSPGERATLSCRASKSVGWSLHWYQQKPGQAPRLLIKYASQSLSGIPARFSGSGSGTDFTLTISSLEPEDFAVYYCHQSSRLPFTFGPGTKVDIKRTVAAPSVFIFPPSDEQLKSGTASVVCLLNNFYPREAKVQWKVDNALQSGNSQESVTEQDSKDSTYSLESTLTLSKADYEKHKVYACEVTHQGLSSPVTKSFNRGEC
heavy 2: not shown
B2: iPS:454785 (bispecific antibody, human IgG1, kappa, lambda, N297G)
light 1: B1 light 1
heavy 1: B1 heavy 1
light 2: B1 light 2
heavy 2: not shown
B3: iPS:454787 (bispecific antibody, human IgG1, kappa, lambda, N297G)
light 1: B1 light 1
heavy 1: B1 heavy 1
light 2: B1 light 2
heavy 2: not shown
B4: iPS:454789 (bispecific antibody, human IgG1, kappa, lambda, N297G)
light 1: B1 light 1
heavy 1: B1 heavy 1
light 2: B1 light 2
heavy 2: not shown
B5: iPS:454791 (bispecific antibody, human IgG1, kappa, lambda, N297G)
light 1: B1 light 1
heavy 1: B1 heavy 1
light 2: B1 light 2 with W31Y
heavy 2: not shown
B6: iPS:454793 (bispecific antibody, human IgG1, kappa, lambda, N297G)
light 1: B1 light 1 with Y26R, R31I, Y32K, S33A
heavy 1: B1 heavy 1
light 2: B1 light 2 with W31Q
heavy 2: not shown
B7: iPS:454795 (bispecific antibody, human IgG1, kappa, lambda, N297G)
light 1: B1 light 1 with Y26R, R31I, Y32K, S33A
heavy 1: B1 heavy 1
light 2: B1 light 2 with S28A, G30W, W31H, S32N, R93M
heavy 2: not shown
B8: iPS:454797 (bispecific antibody, human IgG1, kappa, lambda, N297G)
light 1: B1 light 1 with Y26R, R31I, Y32K, S33A
heavy 1: B1 heavy 1
light 2: B1 light 2 with K27R, W31L, S32A, R93F
heavy 2: not shown
B9: iPS:454799 (bispecific antibody, human IgG1, kappa, lambda, N297G)
light 1: B1 light 1 with Y26R, R31I, Y32K, S33A
heavy 1: B1 heavy 1
light 2: B1 light 2 with W31Q
heavy 2: not shown
B10: iPS:454801 (bispecific antibody, human IgG1, kappa, lambda, N297G)
light 1: B1 light 1 with Y26R, R31I, Y32K, S33A
heavy 1: B1 heavy 1
light 2: B1 light 2 with W31Q
heavy 2: not shown
B11: iPS:454803 (bispecific antibody, human IgG1, kappa, lambda, N297G)
light 1: B1 light 1 with Y26R, R31I, Y32K, S33A
heavy 1: B1 heavy 1
light 2: B1 light 2
heavy 2: not shown
B12: iPS:454805 (bispecific antibody, human IgG1, kappa, lambda, N297G)
light 1: B1 light 1 with Y26R, R31I, Y32K, S33A
heavy 1: B1 heavy 1
light 2: B1 light 2 with W31Q
heavy 2: not shown
B13: iPS:454807 (bispecific antibody, human IgG1, kappa, lambda, N297G)
light 1: B1 light 1 with Y26R, R31I, Y32K, S33A
heavy 1: B1 heavy 1
light 2: B1 light 2 with W31Q
heavy 2: not shown
B14: iPS:454809 (bispecific antibody, human IgG1, kappa, lambda, N297G)
light 1: B1 light 1 with Y26R, R31I, Y32K, S33A
heavy 1: B1 heavy 1
light 2: B1 light 2 with S28A, W31F, R93F
heavy 2: not shown
B15: iPS:454811 (bispecific antibody, human IgG1, kappa, lambda, N297G)
light 1: B1 light 1 with Y26R, R31I, Y32K, S33A
heavy 1: B1 heavy 1
light 2: EIVLTQSPATLSLSPGERATLSCRASRAVSNLHWYQQKPGQAPRLLIKYASQSLSGIPARFSGSGSGTDFTLTISSLEPEDFAVYYCHQSSYLPFTFGPGTKVDIKRTVAAPSVFIFPPSDEQLKSGTASVVCLLNNFYPREAKVQWKVDNALQSGNSQESVTEQDSKDSTYSLESTLTLSKADYEKHKVYACEVTHQGLSSPVTKSFNRGEC
heavy 2: not shown
B16: iPS:454813 (bispecific antibody, human IgG1, kappa, lambda, N297G)
light 1: B1 light 1 with Y26R, R31I, Y32K, S33A
heavy 1: B1 heavy 1
light 2: B1 light 2 with W31R
heavy 2: not shown
B17: iPS:454815 (bispecific antibody, human IgG1, kappa, lambda, N297G)
light 1: B1 light 1 with Y26R, R31I, Y32K, S33A
heavy 1: B1 heavy 1
light 2: B1 light 2 with W31R
heavy 2: not shown
B18: iPS:454817 (bispecific antibody, human IgG1, kappa, lambda, N297G)
light 1: B1 light 1 with Y26R, R31I, Y32K, S33A
heavy 1: B1 heavy 1
light 2: B1 light 2 with W31R
heavy 2: not shown
B19: iPS:454819 (bispecific antibody, human IgG1, kappa, lambda, N297G)
light 1: B1 light 1 with Y26R, R31I, Y32K, S33A
heavy 1: B1 heavy 1
light 2: B1 light 2 with W31R
heavy 2: not shown
B20: iPS:454821 (bispecific antibody, human IgG1, kappa, lambda, N297G)
light 1: B1 light 1 with Y26R, R31I, Y32K, S33A
heavy 1: B1 heavy 1
light 2: B1 light 2 with W31R
heavy 2: not shown
B21: iPS:454823 (bispecific antibody, human IgG1, kappa, lambda, N297G)
light 1: B1 light 1 with Y26R, R31I, Y32K, S33A
heavy 1: B1 heavy 1
light 2: B1 light 2 with W31R
heavy 2: not shown
B22: iPS:454825 (bispecific antibody, human IgG1, kappa, lambda, N297G)
light 1: B1 light 1 with Y26R, R31I, Y32K, S33A
heavy 1: B1 heavy 1
light 2: B1 light 2 with W31R
heavy 2: not shown

molecular target: T1, human PAC1 receptor (human, UniProt P41586 24-468); experiment: cell-based or functional assay
T1 sequence: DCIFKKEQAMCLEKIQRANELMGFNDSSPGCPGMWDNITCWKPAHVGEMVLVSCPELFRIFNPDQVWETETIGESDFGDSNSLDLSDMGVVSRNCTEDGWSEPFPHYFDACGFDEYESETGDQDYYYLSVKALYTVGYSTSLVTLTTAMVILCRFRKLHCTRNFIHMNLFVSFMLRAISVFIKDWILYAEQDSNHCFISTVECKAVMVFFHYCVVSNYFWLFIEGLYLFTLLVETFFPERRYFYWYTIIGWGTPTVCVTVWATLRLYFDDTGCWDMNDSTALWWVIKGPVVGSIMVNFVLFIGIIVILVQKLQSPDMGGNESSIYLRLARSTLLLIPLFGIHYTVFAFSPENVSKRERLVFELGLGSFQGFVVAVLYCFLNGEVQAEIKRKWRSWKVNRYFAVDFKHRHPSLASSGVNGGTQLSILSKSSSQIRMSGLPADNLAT

Binder | Fold-improvement over 29G4v22 Ab [fold] | IC50 [nM]
B1 | 9.1 | 0.62
B2 | 4.6 | 1.43
B3 | 9.5 | 0.69
B4 | 5.5 | 1.19
B5 | 7.1 | 0.79
B6 | 6 | 1.09
B7 | 2 | 3.26
B8 | 5.4 | 1.21
B9 | 4.1 | 1.59
B10 | 4.4 | 1.82
B11 | 8.7 | 0.92
B12 | 6.9 | 1.16
B13 | 5.4 | 1.48
B14 | 4 | 2.01
B15 | 2.8 | 2.85
B16 | 9.9 | 0.81
B17 | 10.1 | 0.65
B18 | 10.7 | 0.62
B19 | 9.6 | 0.69
B20 | 9.2 | 0.72
B21 | 8.3 | 0.8
B22 | 8.4 | 0.79

molecular target: human CGRP receptor (human, UniProt Q16602 23-461; O60894 27-148); experiment: cell-based or functional assay
Sequence (Q16602 23-461 limits assumed, chain 1 of 2): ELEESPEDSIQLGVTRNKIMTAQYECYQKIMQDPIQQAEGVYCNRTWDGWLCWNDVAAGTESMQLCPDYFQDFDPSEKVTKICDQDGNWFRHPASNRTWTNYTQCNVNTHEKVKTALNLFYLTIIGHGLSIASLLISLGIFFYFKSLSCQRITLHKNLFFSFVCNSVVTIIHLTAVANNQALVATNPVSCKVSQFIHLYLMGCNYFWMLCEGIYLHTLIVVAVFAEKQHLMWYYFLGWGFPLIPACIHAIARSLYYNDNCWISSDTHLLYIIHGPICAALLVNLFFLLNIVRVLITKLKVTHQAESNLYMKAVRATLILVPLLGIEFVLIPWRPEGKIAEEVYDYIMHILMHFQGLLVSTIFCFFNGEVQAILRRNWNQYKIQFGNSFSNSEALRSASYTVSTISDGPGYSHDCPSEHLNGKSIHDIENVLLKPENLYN
Sequence (O60894 27-148 limits assumed, chain 2 of 2): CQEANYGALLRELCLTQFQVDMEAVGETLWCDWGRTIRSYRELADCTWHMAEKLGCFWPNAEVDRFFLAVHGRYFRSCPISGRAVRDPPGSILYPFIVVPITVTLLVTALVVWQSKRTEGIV

Binder | Fold-improvement over 4E4 Ab [fold] | IC50 [nM]
B1 | 1.1 | 0.48
B2 | 1.1 | 0.47
B3 | 1.8 | 0.27
B4 | 1.7 | 0.29
B5 | 1.2 | 0.44
B6 | 1.3 | 0.39
B7 | 1.4 | 0.37
B8 | 2.6 | 0.2
B9 | 1.6 | 0.32
B10 | 1.2 | 0.44
B11 | 1.2 | 0.44
B12 | 1 | 0.52
B13 | 0.9 | 0.56
B14 | 0.8 | 0.64
B15 | 1 | 0.53
B16 | 0.8 | 0.61
B17 | 1.6 | 0.37
B18 | 1.7 | 0.33
B19 | 1.8 | 0.33
B20 | 1.5 | 0.39
B21 | 1.5 | 0.39
B22 | 2 | 0.29
